For assay [1], the target named is REC_(hHK3), REC-1 domain of hybrid histidine kinase hHK3 (group III, ortholog of Nik1) from Chaetomium thermophilum (Chaetomium thermophilum). The assay can be described thus: SEC-MALS; 20 µg of protein injected on PROTEIN KW-403 4F (Shodex); 50 mM Hepes pH 7, 150 mM NaCl; 0.35 ml/min; without and with PAM or BeF3-. In general terms: Size exclusion chromatography separates by hydrodynamic size, large species first.

Assay [2] concerns the target Ct_HPt, histidine phosphotransfer protein from Chaetomium thermophilum (residues 9-175), Streptag removed (Chaetomium thermophilum).
In assay [3] the target is Histag-Ct_HPt (residues 9-175), labelled with Red-Tris NTA dye (Chaetomium thermophilum). The assay can be described thus: MST; Histag-Ct_HPt labelled with Red-Tris NTA dye held constant; REC-1 domain in sixteen two-fold dilutions from 1 mM (0.32 mM for REC_hHK6); PBS + 0.05% Tween-20; medium MST power; hyperbolic fit, 1:1 model; mean of two titrations.
For assay [4], the target named is REC_(hHK6), REC-1 domain of hybrid histidine kinase hHK6 (group VI, ortholog of Sln1) from Chaetomium thermophilum (Chaetomium thermophilum). The assay can be described thus: SEC-MALS; 20 µg of protein injected on PROTEIN KW-403 4F (Shodex); 50 mM Hepes pH 7, 150 mM NaCl; 0.35 ml/min; without and with PAM or BeF3-.

Chain of Ct_HPt, histidine phosphotransfer protein from Chaetomium thermophilum (residues 9-175), Streptag removed (Chaetomium thermophilum) (main, as listed by the source): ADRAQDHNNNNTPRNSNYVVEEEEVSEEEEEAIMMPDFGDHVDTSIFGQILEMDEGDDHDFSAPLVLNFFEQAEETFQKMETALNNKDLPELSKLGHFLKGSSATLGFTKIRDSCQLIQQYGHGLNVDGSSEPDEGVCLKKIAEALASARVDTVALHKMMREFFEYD

What is called stoichiometry N is the number of molecules, sites or subunits per partner or assembly. In assay [1], “REC_(hHK3), REC-1 domain of hybrid histidine kinase hHK3 (group III, ortholog of Nik1) from Chaetomium thermophilum (domain or fragment)” returned a stoichiometry N of 3.
Take “REC_(hHK4), REC-1 domain of hybrid histidine kinase hHK4 (group IV) from Chaetomium thermophilum (domain or fragment)”: in assay [2], the phosphorylated Ct HPt (Ct HPt~P) on native gel after 30 min with REC-1 domain pre-phosphorylated with PAM (control of Ct HPt with PAM alone ~15%; none with AcP) was found to be 35%.
In general, Kd refers to the free concentration of one partner at which half of the binding sites on the other are occupied at equilibrium, for simple one-to-one binding. With “REC_(hHK5), REC-1 domain of hybrid histidine kinase hHK5 (group V) from Chaetomium thermophilum (domain or fragment)”, the Kd in assay [3] is 94 µM.
In assay [4], “REC_(hHK6), REC-1 domain of hybrid histidine kinase hHK6 (group VI, ortholog of Sln1) from Chaetomium thermophilum (domain or fragment)” yielded a stoichiometry N of 2.
Consider “REC_(hHK11), REC-1 domain of hybrid histidine kinase hHK11 (group XI) from Chaetomium thermophilum (domain or fragment)”, for which the phosphorylated Ct HPt (Ct HPt~P) on native gel after 30 min with REC-1 domain pre-phosphorylated with PAM (control of Ct HPt with PAM alone ~15%; none with AcP) in assay [2] was 35%.

(Values after paper PMC11224324.)
